From patent publication US20160032013A1 (Genentech, published 2016)

Assays:
[1] = biological target: T1, Human RON-hIgG1 Fc (RON Sema/PSI/IPT1 fused to human IgG1 Fc) (human); test: plate binding assay, plate-bound RON-Fc, soluble His-tagged MSP, anti-His-HRP, 4-parameter fit
T1 construct: also called RON-Fc; hRON-Fc
Excerpt: (§1) Means of three replicates per group are shown. […] C presents results of SPR analysis of MSP proteins binding to immobilized RON Sema/PSI, showing relative response in response units. Data are representative of three independent experiments. […] Competition binding to 3T3-hRON cells (large graphs) used to generate affinities and Scatchard plots (inset graphs) are shown. Mean+/−standard deviation (SD) of three independent experiments is shown. E is a homology model of the structure of RON Sema/PSI (PDB code 4FWW) shown at the bottom, which binds to MSP β (PDB code 2ASU) shown on top. RON and MSP β were globally aligned to the Met/HGF β complex (PDB code 1SHY). Predicted locations of the MSP β contact residues within 4 Å of RON are marked by asterisks. […]
(§2) MaxiSorp plates (Nalge Nunc International) were coated overnight at 4° C. with 2 μg/ml of rabbit anti-human IgG Fc specific antibody (Jackson ImmunoResearch Laboratories) in 50 mM sodium carbonate buffer, pH 9.6. […] Bound MSP was detected using anti-His-HRP (Qiagen Inc.) followed by addition of TMB/H₂O₂ substrate (Thermo Scientific). The reaction was stopped with 1M H₃PO₄ and the absorbance at 450 nm (A₄₅₀) was measured on a SpectraMax Plus³⁸⁴ plate reader (Molecular Devices, LLC). The half maximal effective concentration of MSP (EC₅₀) was determined by a 4-parameter fit using Kaleidagraph (Synergy Software).

[2] = biological target: T2, Human RON on cells (3T3-hRON, A2780-hRON, BxPC3, human primary colon cells) (human, UniProt Q04912 25-1400); test: radioligand binding to 3T3-hRON cells for 4 h on ice
T2 construct: That is its entry for human RON

[3] = biological target: T2, Human RON on cells (3T3-hRON, …); test: radioligand binding to 3T3-hRON cells for 2 h at room temperature
Procedure: (§3) MSP proteins were iodinated using the Iodogen method (Thermo Scientific) and purified from free Na¹²⁵I by gel filtration using a NAP-5 column. Specific activities ranged from 12.26 to 18.65 μCi/μg. Competition reaction mixtures were made of a fixed concentration of iodinated MSP and unlabeled MSP serially diluted 1- to 2-fold ten times starting at 5 μM in a volume of 50 μL. 3T3-hRon cells were washed with binding buffer, consisting of DMEM with 1% bovine serum albumin, 325 nM human IgG, 50 mM HEPES (pH 7.2) and 0.1% sodium azide. 150,000 cells in 0.2 ml binding buffer were added to competition reaction mixtures. Competition reactions with cells were incubated for 2 h at room temperature and transferred to a Multiscreen filter plate (Millipore) and washed 4 times with binding buffer. Filters were counted on a Wallac Wizard 1470 gamma counter (PerkinElmer Life and Analytical Sciences). Binding affinities were determined using NewLigand software (Genentech, Inc) (Munson et al., 1980, Anal Biochem 107:220-39).

[4] = biological target: T2, Human RON on cells (3T3-hRON, …); test: radioligand competition binding on 3T3-hRON cells: fixed 125I-MSP 689R as competitor, unlabeled MSP 689R titrated [Continued) D]
Procedure: as §3

[5] = biological target: T1, Human RON-hIgG1 Fc (RON Sema/PSI/IPT1 …); test: plate binding assay, plate-bound RON-Fc, soluble His-tagged MSP β, anti-His-HRP, 4-parameter fit
Excerpt: as §1, §2

[6] = biological target: T1, Human RON-hIgG1 Fc (RON Sema/PSI/IPT1 …); test: SPR capturing RON-Fc at 25 C
Procedure: To determine MSP protein binding kinetics to hRON-Fc or mRON-Fc fusion proteins, between 50 and 100 response units (RU) were captured on each of three immobilized anti-human Fc surfaces. Various concentrations (50-0.78 nM, 2-fold dilution series) of MSP, MSP β, MSP α or scMSP were injected in HBS-P buffer (10 mM HEPES, pH 7.5, 150 mM NaCl, 0.005% P20) at 25° C. with a flow rate of 30 μL/min and dissociation monitored for 4 min. Between measurements, the biosensor surfaces were regenerated with a 2 min pulse of 10 mM glycine-HCl pH 1.5.

[7] = biological target: T1, Human RON-hIgG1 Fc (RON Sema/PSI/IPT1 …); test: BLI using RON-Fc at 30 C
Procedure: Real-time kinetic measurements of MSP binding to RON were conducted using an Octet RED384 (ForteBio, Inc). Samples or buffer were dispensed into 96-well microtiter plates (Greiner Bio-One North America, Inc.) at a volume of 200 μl per well. Anti-human IgG Fc Biosensors were used for the experiments. Each experiment consisted of three steps: incubation with ForteBio Kinetic buffer diluted 1:10 in PBS assay buffer to establish an equilibrium for 120 s (baseline), incubation with 10 μg/ml RON-Fc in assay buffer to coat the biosensor with binding target for 900 s (load), incubation with MSP, MSP β or scMSP in assay buffer containing various concentrations (75-4.7 nM, 2-fold dilution series) for 400 s (association), and incubation with assay buffer to measure the off-rate of MSP for 400 s (dissociation). Operating temperature was maintained at 30° C. Data were generated automatically by the Octet Data Acquisition 7.0 software. Each data set was fitted globally to a simple one-to-one binding model using ForteBio Analysis Software 7.0 to determine the kinetic parameters kₐ and kd. The equilibrium dissociation constants (KD) were then calculated as a ratio (koff/kₒₙ) of these rate constants.

[8] = biological target: T3, Recombinant human RON Sema/PSI (residues E25-P568) with C-terminal His-tag (human, UniProt Q04912 25-568); test: SPR using immobilized RON Sema/PSI at 25 C
T3 construct: Made in Trichoplusia ni insect cells

[9] = biological target: T2, Human RON on cells (3T3-hRON, …); test: radioligand competition binding on 3T3-hRON cells: fixed 125I-MSP 689C as competitor, unlabeled MSP 689C titrated [Continued) D]
Procedure: as §3

T1 sequence (chain, as listed by the source limits assumed): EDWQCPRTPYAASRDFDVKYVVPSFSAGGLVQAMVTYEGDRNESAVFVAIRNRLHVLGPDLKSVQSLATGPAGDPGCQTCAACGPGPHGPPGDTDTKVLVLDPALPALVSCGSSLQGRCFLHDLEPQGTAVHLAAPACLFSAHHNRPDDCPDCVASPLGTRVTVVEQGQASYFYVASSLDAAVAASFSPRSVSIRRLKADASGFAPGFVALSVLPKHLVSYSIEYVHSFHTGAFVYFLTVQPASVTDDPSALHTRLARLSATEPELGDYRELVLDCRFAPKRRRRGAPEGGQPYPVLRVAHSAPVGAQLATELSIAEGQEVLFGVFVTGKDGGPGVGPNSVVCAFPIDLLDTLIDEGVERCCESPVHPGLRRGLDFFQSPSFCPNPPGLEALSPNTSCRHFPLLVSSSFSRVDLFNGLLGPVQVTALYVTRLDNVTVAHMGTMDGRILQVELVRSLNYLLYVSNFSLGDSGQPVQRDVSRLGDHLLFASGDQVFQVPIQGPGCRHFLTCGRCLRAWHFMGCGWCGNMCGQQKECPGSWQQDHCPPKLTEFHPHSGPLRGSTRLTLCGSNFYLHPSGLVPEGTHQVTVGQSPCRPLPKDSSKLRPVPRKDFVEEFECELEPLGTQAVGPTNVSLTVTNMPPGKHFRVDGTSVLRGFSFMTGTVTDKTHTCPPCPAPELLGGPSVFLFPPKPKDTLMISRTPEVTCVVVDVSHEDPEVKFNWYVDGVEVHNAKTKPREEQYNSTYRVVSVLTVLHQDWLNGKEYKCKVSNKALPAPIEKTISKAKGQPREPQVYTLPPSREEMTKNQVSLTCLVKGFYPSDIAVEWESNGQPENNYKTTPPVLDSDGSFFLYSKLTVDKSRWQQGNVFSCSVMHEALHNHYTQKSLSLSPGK

| Binder | EC50 [1] [nM] | Kd [2] [nM] | Kd [3] [nM] | IC50 (read off the curve) [4] [nM] | EC50 [5] [nM] | Kd [6] [nM] | koff [6] [s⁻¹] | kon [6] [M⁻¹ s⁻¹] | Kd [7] [nM] | Kd [8] [nM] | koff [8] [s⁻¹] | kon [8] [M⁻¹ s⁻¹] | IC50 (read off the curve) [9] [nM] |
| --- | --- | --- | --- | --- | --- | --- | --- | --- | --- | --- | --- | --- | --- |
| Full length human MSP 689R (wild type + C672A + His tag), active two-chain form (ligand, Pro-MSP converted with sHepsin into the disulfide-linked alpha/beta heterodimer; Numbering is that of pro-MSP; also called full-length MSP; human full-length MSP) chain 1: QRSPLNDFQVLRGTELQHLLHAVVPGPWQEDVADAEECAGRCGPLMDCRAFHYNVSSHGCQLLPWTQHSPHTRLRRSGRCDLFQKKDYVRTCIMNNGVGYRGTMATTVGGLPCQAWSHKFPNDHKYTPTLRNGLEENFCRNPDGDPGGPWCYTTDPAVRFQSCGIKSCREAACVWCNGEEYRGAVDRTESGRECQRWDLQHPHQHPFEPGKFLDQGLDDNYCRNPDGSERPWCYTTDPQIEREFCDLPRCGSEAQPRQEATTVSCFRGKGEGYRGTANTTTAGVPCQRWDAQIPHQHRFTPEKYACKDLRENFCRNPDGSEAPWCFTLRPGMRAAFCYQIRRCTDDVRPQDCYHGAGEQYRGTVSKTRKGVQCQRWSAETPHKPQFTFTSEPHAQLEENFCRNPDGDSHGPWCYTMDPRTPFDYCALRRCADDQPPSILDPPDQVQFEKCGKRVDRLDQRRSKLR chain 2: VVGGHPGNSPWTVSLRNRQGQHFCGGSLVKEQWILTARQCFSSCHMPLTGYEVWLGTLFQNPQHGEPSLQRVPVAKMVCGPSGSQLVLLKLERSVTLNQRVALICLPPEWYVVPPGTKCEIAGWGETKGTGNDTVLNVALLNVISNQECNIKHRGRVRESEMCTEGLLAPVGACEGDYGGPLACFTHNAWVLEGIIIPNRVCARSRWPAVFTRVSVFVDWIHKVMRLGHHHHHH | 0.1 | 23 | 12.6 | ~10 | – | – | – | – | – | – | – | – | – |
| Human MSP β 689R with wild-type C672 (HGF leader + V484-G711 + C588S + C672C + His tag) (ligand) VVGGHPGNSPWTVSLRNRQGQHFCGGSLVKEQWILTARQCFSSCHMPLTGYEVWLGTLFQNPQHGEPSLQRVPVAKMVCGPSGSQLVLLKLERSVTLNQRVALISLPPEWYVVPPGTKCEIAGWGETKGTGNDTVLNVALLNVISNQECNIKHRGRVRESEMCTEGLLAPVGACEGDYGGPLACFTHNCWVLEGIIIPNRVCARSRWPAVFTRVSVFVDWIHKVMRLGHHHHHH | – | – | – | – | 0.05 | – | – | – | – | – | – | – | – |

The remaining lines, values ahead:

| EC50 [1] [nM] | Kd [2] [nM] | Kd [3] [nM] | IC50 (read off the curve) [4] [nM] | EC50 [5] [nM] | Kd [6] [nM] | koff [6] [s⁻¹] | kon [6] [M⁻¹ s⁻¹] | Kd [7] [nM] | Kd [8] [nM] | koff [8] [s⁻¹] | kon [8] [M⁻¹ s⁻¹] | IC50 (read off the curve) [9] [nM] | Binder |
| --- | --- | --- | --- | --- | --- | --- | --- | --- | --- | --- | --- | --- | --- |
| – | – | – | – | 0.1 | 9.7 | 0.0079 | 870000 | – | – | – | – | – | Human MSP β R689C with wild-type C672 (HGF leader + V484-G711 + C588S + C672C + R689C + His tag) (ligand) VVGGHPGNSPWTVSLRNRQGQHFCGGSLVKEQWILTARQCFSSCHMPLTGYEVWLGTLFQNPQHGEPSLQRVPVAKMVCGPSGSQLVLLKLERSVTLNQRVALISLPPEWYVVPPGTKCEIAGWGETKGTGNDTVLNVALLNVISNQECNIKHRGRVRESEMCTEGLLAPVGACEGDYGGPLACFTHNCWVLEGIIIPNRVCARSCWPAVFTRVSVFVDWIHKVMRLGHHHHHH |
| 0.2 | 25.7 | 13 | – | – | 9.6 | ~0.0016 | ~170000 | 9.4 | 9.6 | 0.0012 | 116000 | ~10 | Full length human MSP R689C (wild type + C672A + R689C + His tag), active two-chain form (ligand) chain 1: QRSPLNDFQVLRGTELQHLLHAVVPGPWQEDVADAEECAGRCGPLMDCRAFHYNVSSHGCQLLPWTQHSPHTRLRRSGRCDLFQKKDYVRTCIMNNGVGYRGTMATTVGGLPCQAWSHKFPNDHKYTPTLRNGLEENFCRNPDGDPGGPWCYTTDPAVRFQSCGIKSCREAACVWCNGEEYRGAVDRTESGRECQRWDLQHPHQHPFEPGKFLDQGLDDNYCRNPDGSERPWCYTTDPQIEREFCDLPRCGSEAQPRQEATTVSCFRGKGEGYRGTANTTTAGVPCQRWDAQIPHQHRFTPEKYACKDLRENFCRNPDGSEAPWCFTLRPGMRAAFCYQIRRCTDDVRPQDCYHGAGEQYRGTVSKTRKGVQCQRWSAETPHKPQFTFTSEPHAQLEENFCRNPDGDSHGPWCYTMDPRTPFDYCALRRCADDQPPSILDPPDQVQFEKCGKRVDRLDQRRSKLR chain 2: VVGGHPGNSPWTVSLRNRQGQHFCGGSLVKEQWILTARQCFSSCHMPLTGYEVWLGTLFQNPQHGEPSLQRVPVAKMVCGPSGSQLVLLKLERSVTLNQRVALICLPPEWYVVPPGTKCEIAGWGETKGTGNDTVLNVALLNVISNQECNIKHRGRVRESEMCTEGLLAPVGACEGDYGGPLACFTHNAWVLEGIIIPNRVCARSCWPAVFTRVSVFVDWIHKVMRLGHHHHHH |
